This passage reports activity results from patent US6635429, “Heterodimeric nuclear receptors proteins, genes encoding same, and usage thereof” (Institut National de la Sante et de la Recherche Medicale).

Common to all, as to conditions: protein: extract; tags: yeast-expressed
In series [1] the target is T1, RARα1/RXRα heterodimer (yeast) (Homo sapiens/Mus musculus, UniProt P10276;P28700 P10276:1-462,P28700:1-467).
T1 sequence 1: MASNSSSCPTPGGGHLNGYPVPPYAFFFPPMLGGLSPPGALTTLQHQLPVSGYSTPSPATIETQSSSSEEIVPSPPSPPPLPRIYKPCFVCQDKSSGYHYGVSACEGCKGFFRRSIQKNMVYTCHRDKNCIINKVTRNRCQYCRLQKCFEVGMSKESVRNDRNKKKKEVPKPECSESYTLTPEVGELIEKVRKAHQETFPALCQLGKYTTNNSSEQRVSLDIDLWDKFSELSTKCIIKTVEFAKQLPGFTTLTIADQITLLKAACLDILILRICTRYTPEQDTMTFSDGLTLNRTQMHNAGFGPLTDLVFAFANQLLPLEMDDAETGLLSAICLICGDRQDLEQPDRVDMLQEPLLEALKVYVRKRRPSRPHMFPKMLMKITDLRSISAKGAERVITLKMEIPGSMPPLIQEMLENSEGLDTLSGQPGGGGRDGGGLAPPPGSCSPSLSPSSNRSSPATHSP
T1 sequence 2: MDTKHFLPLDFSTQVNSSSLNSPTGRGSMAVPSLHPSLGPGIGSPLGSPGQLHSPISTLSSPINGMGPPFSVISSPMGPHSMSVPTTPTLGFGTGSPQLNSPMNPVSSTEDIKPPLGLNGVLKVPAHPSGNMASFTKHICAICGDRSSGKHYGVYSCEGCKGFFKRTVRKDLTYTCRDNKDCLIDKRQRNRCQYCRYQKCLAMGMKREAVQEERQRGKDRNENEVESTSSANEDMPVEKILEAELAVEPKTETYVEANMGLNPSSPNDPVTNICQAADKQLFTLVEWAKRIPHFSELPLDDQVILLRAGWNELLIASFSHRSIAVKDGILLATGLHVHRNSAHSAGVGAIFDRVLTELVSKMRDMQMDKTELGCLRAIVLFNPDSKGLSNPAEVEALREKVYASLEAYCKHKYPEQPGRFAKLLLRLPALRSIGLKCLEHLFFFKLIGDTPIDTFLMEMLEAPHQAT
The series is described as follows: cell_activity; yeast URA3 reporter, 500 nM 9-cis RA. The text has this: (§1) FIG. 13A, Sequences of the response elements used in this study consisting of a direct repeat of a hexamer sequence spaced by one to five base pairs (DR1–DR5), or an inverted repeat of the same hexamer with no spacing (IR0). The hexamer repeats are indicated by arrows and the spacer sequences are presented in lower case. FIG. 13B, Transactivation of URA3 reporter genes containing the different elements by homodimers and heterodimers of RARα and RXRα. The sequences represented in FIG. 13A were cloned into the promoter of a URA3 reporter gene carried on a centromeric plasmid to generate the DRn-URA3 reporter series and IR0-URA3. The reporters were introduced into a yeast strain containing multicopy vectors expressing RARα, RXRα or no receptor. […] "Control" indicates the basal reporter activity in the absence of receptors (using "empty" expression vectors), and the experiments using only one receptor were performed in the presence of the corresponding "empty" vector. The white, hatched and black columns indicate the reporter activity in the presence of no ligand, all-trans RA and 9-cis RA, respectively. The reporter activities are given as units of OMPdecase activity per minute per mg protein, and the values represent the average of at least 2 experiments using at least 2 different clones per experiment. […] Similar amounts of each probe (50, 000 cpm) were used in the assays.

Series [2] deals with T2, RXRα (yeast) (Mus musculus, UniProt P28700 SEQ:1-467).
T2 sequence: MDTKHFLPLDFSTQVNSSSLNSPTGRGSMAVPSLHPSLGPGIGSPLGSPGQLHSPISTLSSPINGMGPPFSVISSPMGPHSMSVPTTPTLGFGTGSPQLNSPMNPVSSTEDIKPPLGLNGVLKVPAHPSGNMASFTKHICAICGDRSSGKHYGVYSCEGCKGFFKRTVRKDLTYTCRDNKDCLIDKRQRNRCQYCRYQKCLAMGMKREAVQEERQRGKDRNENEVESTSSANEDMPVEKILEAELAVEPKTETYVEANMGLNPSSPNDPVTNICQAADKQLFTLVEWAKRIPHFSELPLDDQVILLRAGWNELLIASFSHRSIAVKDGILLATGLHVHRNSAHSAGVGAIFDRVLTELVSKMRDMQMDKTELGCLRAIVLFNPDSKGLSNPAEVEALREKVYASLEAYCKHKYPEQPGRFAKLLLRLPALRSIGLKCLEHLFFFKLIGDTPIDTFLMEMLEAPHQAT
The series is described as follows: cell_activity; yeast, 9-cis RA.
Text: as §1

Series [3] has as its target T1, RARα1/RXRα heterodimer (yeast). The series is described as follows: cell_activity; yeast, 500 nM 9-cis RA; low absolute activity.
Text: as §1

Series [4] addresses T2, RXRα (yeast). The series is described as follows: cell_activity; yeast, ligand dependent; low absolute activity.
Text: as §1

In series [5] the target is T1, RARα1/RXRα heterodimer (yeast). The series is described as follows: cell_activity; yeast, 500 nM 9-cis RA.
Text: as §1

B1: DR1 (dsDNA)
DNA 1: AGGTCAGAGGTCA
DNA 2: TGACCTCTGACCT
Regarding B1, the values for the activity in series [1] and in series [2] were 36 fold over control and at least 30 fold, respectively.

B2: IR0 (dsDNA)
DNA 1: AGGTCATGACCT
DNA 2: AGGTCATGACCT
Turning to B2, the activity in series [3] worked out at 40 fold over control; in series [4], 20 fold over control.

B3: DR4 (dsDNA)
DNA 1: AGGTCAGCGAAGGTCA
DNA 2: TGACCTTCGCTGACCT
Turning to B3, the activity in series [5] was around 10 fold over control.

B4: DR3 (dsDNA)
DNA 1: AGGTCAGCGAGGTCA
DNA 2: TGACCTCGCTGACCT
In series [5], B4 showed an activity of around 10 fold over control.

B5: DR5 (dsDNA)
DNA 1: AGGTCAGCGAGAGGTCA
DNA 2: TGACCTCTCGCTGACCT
In series [1], B5 showed an activity of 60 fold over control.

B6: DR2 (dsDNA)
DNA 1: AGGTCAGCAGGTCA
DNA 2: TGACCTGCTGACCT
In the case of B6, the activity in series [5] is around 10 fold over control.
